Laboratory results: patent publication US12006519B2, “Polymerase mutants and use with 3′-OH unblocked reversible terminators” (Agilent Technologies, Inc., priority 2021, dated 2024)
Entries after “also recorded” stand apart in the source; their conditions may differ.

Assays:
Assay type in all cases: biochemical
[1] = tested on: Lightning Terminator-A (LTA); assay: Plate-based single-base extension assay, incorporation of LTA
Description: This example used saturation mutagenesis at positions 486 and 494 in Pfu D141A/E143A to create additional mutant polymerases. Bacterial extracts were screened in a plate-based single-base extension assay employing Lightning Terminator-A (LTA). Positive clones producing the highest fluorescent signals were sequenced to identify the amino acid replacement. […] Selected lysates, based on screening results, were submitted for sequencing, and an amino acid identification was made based on the selections.
FIG. 3 illustrates the saturation of position 486 in a Pfu polymerase. The QuikChange kit was used with degenerate NDT codon primers to create a library of Pfu A486 mutants. A NDT codon comprises an A, C, G, or T at the first position, an A, G, or T at the second position, and a T at the third position, thereby introducing variability into the primer. The 12 possible NDT codons represent 12 amino acids (Phe, Leu, Ile, Val, Tyr, His, Asn, Asp, Cys, Arg, Ser, and Gly). Heat-clarified extracts were prepared from 32 randomly selected colonies. Extracts were screened for incorporation of LTA in a microtiter plate assay employing an immobilized dsDNA substrate. […]
In this example, additional mutant polymerases were derived from Pfu polymerase. […] After washing and UV cleavage (to minimize dye quenching effects), plates were read and fluorescent signals compared to Pfu controls. […]

LTA-1 = assay: Template-independent incorporation of LTA-1 to a priming strand
Experimental: This example tested the addition of a 3′-OH unblocked reversible terminator (LTA-1, shown in FIG. 1E, or LTA-2, shown in FIG. 1F) to the 3′ end of a single-stranded priming strand. The extension reaction was performed with 2 uM or 80 nM of a priming strand and varying concentrations (100/50/10/5/1 μM) of the reversible terminator. The performance of the Pfu26 polymerase was compared to TdT polymerase.
(§1) Primer extensions were carried out in duplicate 25 ul reactions containing 7.5 U calf thymus TdT, 1×Promega TdT buffer (with CoCl2), varying concentrations of LTA-1 (100 uM, 50 uM, 10 uM, 5 uM, or 1 uM), and either 2 uM (FIG. 11A to 11C) or 80 nM (FIG. 11D to 11F) of a priming strand (Fam-labeled T7 F primer (6Fam […]), SEQ ID NO:8). Controls were performed without the addition of a polymerase. Primer extensions were also carried out in reactions containing the Pfu26 mutant polymerase, 60 nM of the priming strand, and various concentrations (10 μM or 5 μM or 1 μM) of LTA-1 or LTA-2.
Reactions were incubated at 37° C. for 30 min., and then heat-killed for 10 min. at 70° C. Reaction products were split in half, and one-half was treated with UV as described in Example 7. Reactions were then diluted 1:333 (2 uM primer) or 1:13 (80 nM primer) in water, and 0.5 ul portions were analyzed by capillary electrophoresis using the conditions provided in Example 7.

LTA-2 = assay: Template-independent incorporation of LTA-2, LTU-2, LTG-2, LTC-2 to priming strands
Experimental: The template-independent DNA synthesis reactions employed 7.5 U TdT (Promega) or 180 nM (3×over primer) Pfu26 (D141A/E143A/A486L/Y546H/K477W/L409Y) or Pfu48 (D141A/E143A/A486R/Y546H/K477W/L409Y). Varying concentrations of dATP were added to 2 μM (TdT) or 60 nM (Pfu) T7 FOR primer (6′Fam […]) (SEQ ID NO:6) in duplicate reactions containing 1×TdT buffer with CoCl2(Promega) or 1×ThermoPol buffer (NEB). Reactions were incubated for 30 min. at 37° C. (TdT) or 60° C. (Pfu), and then inactivated with heat (TdT; 10 min. at 70° C.) or EDTA (1 ul 500 uM EDTA). Reaction products were exposed to UV using a Stratalinker (15-watt bulbs, […], 10 min). Reactions were diluted in water (TdT, 1:333; Pfu, 1:10) and 1 μl (TdT) or 0.5 μl (Pfu) aliquots were brought up to 10 μl with HiDI/LIZ 120 Size Standard. Products were heated at 95° C. for 5 min., cooled on ice for 2 min., and then analyzed on an ABI 3500 capillary electrophoresis system ([…] capillary, filter set #5, assay=GE5 LIZ120).
In this example, primer extension was carried out with LTA-2 (FIG. 1F) as a Rp+Sp racemic mixture of α-thiotriphosphate, using the conditions described in Example 7.
In further experiments, single-base extension reactions (10 ul) were performed with an equimolar mixture (3 uM each) of two single-stranded oligommcleotides:
Both were labeled with Fam but distinguishable by their lengths using capillary electrophoresis. Primer extension reactions were performed using the following three Pfu mutants at a concentration of 18 nM polymerase: • Pfu10: Pfu polymerase with D141A/E143A/A486L/Y546H/K477W mutations (SEQ ID NO:2) • Pfu26: Pfu polymerase with D141A/E143A/A486L/Y546H/K477W/L409Y mutations (SEQ ID NO:4) • Pfu48: Pfu polymerase with D141A/E143A/A486R/Y546H/K477W/L409Y mutations (SEQ ID NO:5) The extension reactions also employed individual αS-modified LTs in Rp+Sp racemic mixture (namely, LTA-2, LTU-2, LTG-2, and LTC-2) at final concentrations of 5 uM. LTU-2, LTG-2, and LTC-2 are all C7 or C5-hydroxymethyl-a-tert-butyl-2-nitrobenzyl modified reversible terminators like LTA-2, with uracil, guanine, and cytosine in place of adenine. […] Reactions were incubated, stopped, UV-treated, and analyzed as described in Example 7.
as §1

B1: A486R: Pfu D141A/E143A with A486R (protein)
chain: MILDVDYITEEGKPVIRLFKKENGKFKIEHDRTFRPYIYALLRDDSKIEEVKKITGERHGKIVRIVDVEKVEKKFLGKPITVWKLYLEHPQDVPTIREKVREHPAVVDIFEYDIPFAKRYLIDKGLIPMEGEEELKILAFAIATLYHEGEEFGKGPIIMISYADENEAKVITWKNIDLPYVEVVSSEREMIKRFLRIIREKDPDIIVTYNGDSFDFPYLAKRAEKLGIKLTIGRDGSEPKMQRIGDMTAVEVKGRIHFDLYHVITRTINLPTYTLEAVYEAIFGKPKEKVYADEIAKAWESGENLERVAKYSMEDAKATYELGKEFLPMEIQLSRLVGQPLWDVSRSSTGNLVEWFLLRKAYERNEVAPNKPSEEEYQRRLRESYTGGFVKEPEKGLWENIVYLDFRAYYPSIIITHNVSPDTLNLEGCKNYDIAPQVGHKFCKDIPGFIPSLLGHLLEERQKIKTKMKETQDPIEWILLDYRQKRIKLLANSFYGYYGYAKARWYCKECAESVTAWGRKYIELVWKELEEKFGFKVLYIDTDGLHATIPGGESEEIKKKALEFVKYINSKLPGLLELEYEGFYKRGFFVTKKRYAVIDEEGKVITRGLEIVRRDWSEIAKETQARVLETILKHGDVEEAVRIVKEVIQKLANYEIPPEKLAIYEQITRPLHEYKAIGPHVAVAKKLAAKGVKIKPGMVIGYIVLRGDGPISNRAILAEEYDPKKHKYDAEYYIENQVLPAVLRILEGFGYRKEDLRYQKTRQVGLTSWLNIKKS
modifications: Mutant of Pyrococcus furiosus Polymerase
[1]; Example 5, saturation mutagenesis in Pfu D141A/E143A, bacterial extracts, LTA
  Incorporation of Lightning Terminators (in words): improve incorporation of Lightning Terminators
[1]; Example 6, LTA and/or LTC
  Incorporation signals compared to the Pfu A486L control (Pfu10): superior incorporation signals

B2: TdT: commercially available preparation of calf thymus terminal deoxynucleotidyl transferase (Promega) (protein, UniProt P06526 1-509, looked up)
DNA nucleotidylexotransferase: MDPLCTASSGPRKKRPRQVGASMASPPHDIKFQNLVLFILEKKMGTTRRNFLMELARRKGFRVENELSDSVTHIVAENNSGSEVLEWLQVQNIRASSQLELLDVSWLIESMGAGKPVEITGKHQLVVRTDYSATPNPGFQKTPPLAVKKISQYACQRKTTLNNYNHIFTDAFEILAENSEFKENEVSYVTFMRAASVLKSLPFTIISMKDTEGIPCLGDKVKCIIEEIIEDGESSEVKAVLNDERYQSFKLFTSVFGVGLKTSEKWFRMGFRSLSKIMSDKTLKFTKMQKAGFLYYEDLVSCVTRAEAEAVGVLVKEAVWAFLPDAFVTMTGGFRRGKKIGHDVDFLITSPGSAEDEEQLLPKVINLWEKKGLLLYYDLVESTFEKFKLPSRQVDTLDHFQKCFLILKLHHQRVDSSKSNQQEGKTWKAIRVDLVMCPYENRAFALLGWTGSRQFERDIRRYATHERKMMLDNHALYDKTKRVFLKAESEEEIFAHLGLDYIEPWERNA
LTA-1
  Template-independent incorporation of LTA-1 (in words): incorporates LTA-1 much more efficiently than the more highly substituted LTA-2
  Termination efficiency with LTA-1: poor
LTA-1; LTA-1, 80 nM primer
  Bases incorporated in a single synthesis cycle: > 3 bases
LTA-1; LTA-1, 2 uM primer
  Bases incorporated in a single synthesis cycle: 3 bases
LTA-2; single-stranded priming strand
  Template-independent incorporation of LTA-2 (in words): did not incorporate the LTA-2 terminator as efficiently as dATP; also recorded: failed to incorporate LTA-2

B3: Pfu48: Pfu D141A/E143A/A486R/Y546H/K477W/L409Y, SEQ ID NO:5 (protein)
chain: MILDVDYITEEGKPVIRLFKKENGKFKIEHDRTFRPYIYALLRDDSKIEEVKKITGERHGKIVRIVDVEKVEKKFLGKPITVWKLYLEHPQDVPTIREKVREHPAVVDIFEYDIPFAKRYLIDKGLIPMEGEEELKILAFAIATLYHEGEEFGKGPIIMISYADENEAKVITWKNIDLPYVEVVSSEREMIKRFLRIIREKDPDIIVTYNGDSFDFPYLAKRAEKLGIKLTIGRDGSEPKMQRIGDMTAVEVKGRIHFDLYHVITRTINLPTYTLEAVYEAIFGKPKEKVYADEIAKAWESGENLERVAKYSMEDAKATYELGKEFLPMEIQLSRLVGQPLWDVSRSSTGNLVEWFLLRKAYERNEVAPNKPSEEEYQRRLRESYTGGFVKEPEKGLWENIVYLDFRAYYPSIIITHNVSPDTLNLEGCKNYDIAPQVGHKFCKDIPGFIPSLLGHLLEERQKIKTKMKETQDPIEWILLDYRQKRIKLLANSFYGYYGYAKARWYCKECAESVTAWGRKYIELVWKELEEKFGFKVLYIDTDGLHATIPGGESEEIKKKALEFVKYINSKLPGLLELEYEGFYKRGFFVTKKRYAVIDEEGKVITRGLEIVRRDWSEIAKETQARVLETILKHGDVEEAVRIVKEVIQKLANYEIPPEKLAIYEQITRPLHEYKAIGPHVAVAKKLAAKGVKIKPGMVIGYIVLRGDGPISNRAILAEEYDPKKHKYDAEYYIENQVLPAVLRILEGFGYRKEDLRYQKTRQVGLTSWLNIKKS
modifications: Mutant of Pyrococcus furiosus Polymerase
LTA-2; 18 nM polymerase, 5 uM terminators, CE2 and T7 oligonucleotides
  Template-independent incorporation of LTA-2, LTU-2, LTG-2 and LTC-2 (in words): superior to Calf thymus Terminal Transferase (TdT)
